Measured values published in patent US20240166767A1 (SCIRHOM, published 2024).
Substitutions are numbered along the chain they refer to.

T1: dog iRhom2 full length wild type C-terminally tagged with 3 consecutive copies of the T7 epitope (dog, UniProt Q00M95 1-827)
T1 construct: whole, on cells; also called dog-iR2-FL-WT-T7; expressed by MEF-DKO-Dog-iR2-FL-WT-T7 cells
T1 sequence: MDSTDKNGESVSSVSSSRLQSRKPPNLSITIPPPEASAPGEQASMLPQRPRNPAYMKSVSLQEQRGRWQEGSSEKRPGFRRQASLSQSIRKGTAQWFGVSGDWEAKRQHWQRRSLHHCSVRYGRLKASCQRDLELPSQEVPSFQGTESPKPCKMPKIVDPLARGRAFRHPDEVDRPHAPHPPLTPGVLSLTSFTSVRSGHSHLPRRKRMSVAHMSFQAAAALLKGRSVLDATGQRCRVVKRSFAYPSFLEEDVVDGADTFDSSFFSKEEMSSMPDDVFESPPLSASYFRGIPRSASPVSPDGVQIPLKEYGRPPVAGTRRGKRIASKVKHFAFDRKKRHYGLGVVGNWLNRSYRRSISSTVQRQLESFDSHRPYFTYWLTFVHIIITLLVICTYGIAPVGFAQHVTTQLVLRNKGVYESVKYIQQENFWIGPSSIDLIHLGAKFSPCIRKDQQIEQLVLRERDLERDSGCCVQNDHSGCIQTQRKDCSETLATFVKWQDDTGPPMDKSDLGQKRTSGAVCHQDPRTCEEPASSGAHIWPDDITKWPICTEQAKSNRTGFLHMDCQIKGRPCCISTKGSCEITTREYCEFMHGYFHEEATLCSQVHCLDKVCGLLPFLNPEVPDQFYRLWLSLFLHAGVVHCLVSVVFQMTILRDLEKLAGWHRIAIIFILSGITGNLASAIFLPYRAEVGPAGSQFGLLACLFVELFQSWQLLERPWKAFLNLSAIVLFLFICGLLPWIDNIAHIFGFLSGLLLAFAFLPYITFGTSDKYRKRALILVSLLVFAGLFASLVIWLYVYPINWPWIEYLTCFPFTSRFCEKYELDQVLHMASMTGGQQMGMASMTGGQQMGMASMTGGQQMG

B1: humanized antibody 42-B-04 (antibody, V domains shown)
VH: QVTLRESGPALVKPTQTLTLTCTFSGFSLSTFGRGVGWIRQPPGKALEWLAHIWWDDEKYYNSALKSRLTISKDTSKNQVVLTITNMDPVDTATYYCARIQNYGSNYWYFDVWGQGTLVTVSS
VL: AIQLTQSPSSLSASVGDRVTITCRASSRISYMFWYQQKPGKAPKVLIYDTSNLASGVPSRFSGSGSGTDYTLTISSLQPEDFATYYCQQWNAYPLTFGQGTKLEIK
notes: Tested as whole humanized antibody produced in CHO cells and detected with anti-human IgG; the general methods speak of human IgG1/Kappa; also called clone 42-B-04
B2: humanized antibody 42-B-02 (antibody, V domains shown)
VH: B1 VH
VL: B1 VL with A92S
notes: Tested as whole humanized antibody from transient expression of heavy chain/kappa light chain pairs in CHO cells, detected with anti-human IgG; the general methods speak of human IgG1/Kappa; also called clone 42-B-02
B3: humanized antibody 23-B-04 (antibody, V domains shown)
VH: B1 VH with R34M, Q101S, D111N
VL: B1 VL with R28S, I29V, F33Y
notes: Tested as whole humanized antibody produced in CHO cells and detected with anti-human IgG; the general methods speak of human IgG1/Kappa; also called clone 23-B-04
B4: humanized antibody 16-B-07 (antibody, V domains shown)
VH: QVTLRESGPALVKPTQTLTLTCTFSGFSLSTFALGVGWIRQPPGKALEWLAHIWWDEDKYYNPALKSRLTISKDTSKNQVVLTITNMDPVDTATYYCARITTYYYGMDYWGQGTLVTVSS
VL: EIVMTQSPDFQSVTPKEKVTITCRASQSIGNHLHWYQQKPDASPKLLIKYASQSISGVPSRFSGSGSGTDFTLTINSLEAEDAATYFCQQSYQWPLTFGQGTKLEIK
notes: Tested as whole humanized antibody produced in CHO cells and detected with anti-human IgG; the general methods speak of human IgG1/Kappa; also called clone 16-B-07
B5: humanized antibody 16-B-05 (antibody, V domains shown)
VH: B4 VH
VL: B4 VL with Q93N
notes: Tested as whole humanized antibody produced in CHO cells and detected with anti-human IgG; the general methods speak of human IgG1/Kappa; The printed LCVD reads SRESGSG where the printed cDNA encodes SRFSGSG; also called clone 16-B-05

Target: T1, dog iRhom2 full length wild type …
Experiment: FACS on MEF-DKO-Dog-iR2-FL-WT-T7 cells, 3 µg/ml
Description: In brief, immortalized MEF-DKO-EV control cells, MEF-DKO-rhesus-iR2-FL-WT-T7 cells, MEF-DKO-cyno-iR2-FL-WT-T7 cells, MEF-DKO-dog-iR2-FL-WT-T7 cells and MEF-DKO-rabbit-iR2-FL-WT-T7 cells, as well as their respective iRhom1 counterparts, were harvested with 10 mM EDTA in PBS, washed and resuspended in FACS buffer (PBS, 3% FBS, 0.05% sodium azide), and seeded in Nunc U-bottom 96-well plates (Thermo Fisher Scientific, USA) at approximately 3×10⁵ cells per well. To pellet cells and remove supernatants, the plates were centrifuged at 1,500 rpm and 4° C. for 3 minutes. For primary staining, cells were resuspended in 100 μl per well of either FACS buffer alone (controls), mouse monoclonal anti-T7 IgG (Merck Millipore, USA) at 3 μg/ml FACS buffer or the antibodies of the invention also at 3 μg/ml FACS buffer and incubated on ice for 1 hour. Afterwards, plates were centrifuged at 1,500 rpm and 4° C. for 3 minutes and washed twice with 200 μl per well of FACS buffer. For secondary staining of previous anti T7 staining, cells were spun down and resuspended in 100 μl per well of PE-conjugated goat anti-mouse IgG F(ab′)2 detection fragment (Dianova, Germany) diluted 1:100 in FACS buffer. For secondary staining of previous staining with humanized antibodies of invention, cells were spun down and resuspended in 100 μl per well of PE-conjugated goat anti-human IgG F(ab′)2 detection fragment (Dianova, Germany) diluted 1:100 in FACS buffer. Protected from light, the cell suspensions were incubated on ice for 1 hour. Plates were then centrifuged at 1,500 rpm and 4° C. for 3 minutes and washed three times with 200 μl per well of FACS buffer. Finally, cells were resuspended in 150 μl per well of FACS buffer and analyzed using a BD Accuri™ C6 Plus flow cytometer (Becton Dickinson, Germany).

| Binder | binding result |
| --- | --- |
| B1 | binds |
| B2 | binds |
| B3 | binds |
| B4 | binds |
| B5 | binds |
